Laboratory results: patent US12202907B2, “Nucleic acids encoding and methods of producing proteins comprising antibody chains” (Innate Pharma, priority 2018, dated 2025)
Numbering of substitutions follows the chain as printed.

T1: CD39 (Homo sapiens, UniProt P49961)
T1 sequence (P49961 1-510): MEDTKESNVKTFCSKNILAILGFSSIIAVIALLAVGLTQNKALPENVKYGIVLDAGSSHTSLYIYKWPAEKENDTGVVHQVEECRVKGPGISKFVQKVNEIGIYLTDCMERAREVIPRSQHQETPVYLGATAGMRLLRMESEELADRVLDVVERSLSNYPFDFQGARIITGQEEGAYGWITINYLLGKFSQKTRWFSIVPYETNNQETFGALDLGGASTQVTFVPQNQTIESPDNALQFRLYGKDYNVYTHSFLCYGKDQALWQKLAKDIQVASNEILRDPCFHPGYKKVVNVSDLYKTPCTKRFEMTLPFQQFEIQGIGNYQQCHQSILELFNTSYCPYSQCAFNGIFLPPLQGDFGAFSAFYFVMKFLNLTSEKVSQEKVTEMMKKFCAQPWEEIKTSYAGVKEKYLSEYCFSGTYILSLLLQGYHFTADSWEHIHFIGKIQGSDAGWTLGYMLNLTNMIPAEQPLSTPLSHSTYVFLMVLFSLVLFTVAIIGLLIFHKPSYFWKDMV

T2: soluble recombinant human CD39 protein (Homo sapiens, UniProt P49961)
T2 construct: made in house; host or cells: CHO cells
T2 sequence (P49961 with tags, fused parts or gaps): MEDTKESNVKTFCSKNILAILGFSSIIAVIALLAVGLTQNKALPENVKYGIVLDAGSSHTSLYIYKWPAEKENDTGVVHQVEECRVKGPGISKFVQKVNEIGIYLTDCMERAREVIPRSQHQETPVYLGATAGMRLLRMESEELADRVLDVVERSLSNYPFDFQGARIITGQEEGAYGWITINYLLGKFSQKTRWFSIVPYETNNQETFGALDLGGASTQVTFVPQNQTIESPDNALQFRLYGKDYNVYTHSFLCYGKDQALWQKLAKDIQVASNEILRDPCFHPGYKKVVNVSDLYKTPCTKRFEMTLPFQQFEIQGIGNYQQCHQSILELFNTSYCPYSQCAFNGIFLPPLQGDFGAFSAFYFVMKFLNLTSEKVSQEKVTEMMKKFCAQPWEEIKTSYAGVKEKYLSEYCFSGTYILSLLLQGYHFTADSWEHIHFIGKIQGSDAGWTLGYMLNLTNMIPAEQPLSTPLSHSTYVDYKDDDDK

T3: human Ramos lymphoma cells (CD39) (Homo sapiens, UniProt P49961)
T3 construct: cells that endogenously express CD39 at their surface; host or cells: Ramos
T3 sequence (P49961 1-510): T1 sequence (P49961 1-510)

T4: membrane-bound CD39 in Mino tumor cells (Homo sapiens, UniProt P49961)
T4 construct: endogenous in cells; host or cells: Mino
T4 sequence (P49961 1-510): T1 sequence (P49961 1-510)

T5: CD39 expressed by Ramos human lymphoma cells (Homo sapiens, UniProt P49961)
T5 construct: cells that endogenously express CD39 at their surface; host or cells: Ramos
T5 sequence (P49961 1-510): T1 sequence (P49961 1-510)

B1: mAb20: humanized I-394 variant, VH H4 (SEQ ID NO: 31), VL L1 (SEQ ID NO: 36); heavy chain SEQ ID NO: 38, light chain SEQ ID NO: 39 (antibody)
heavy: QVQLVQSGAEVKKPGASVKVSCKASGYTFTDYNMHWVRQAPGQRLEWIGYIVPLNGGSTFNQKFKGRATITVDTSARTAYMELSSLRSEDTAVYYCARGGTRFAYWGQGTLVTVSSASTKGPSVFPLAPSSKSTSGGTAALGCLVKDYFPEPVTVSWNSGALTSGVHTFPAVLQSSGLYSLSSVVTVPSSSLGTQTYICNVNHKPSNTKVDKRVEPKSCDKTHTCPPCPAPEAEGAPSVFLFPPKPKDTLMISRTPEVTCVVVDVSHEDPEVKFNWYVDGVEVHNAKTKPREEQYNSTYRVVSVLTVLHQDWLNGKEYKCKVSNKALPSSIEKTISKAKGQPREPQVYTLPPSREEMTKNQVSLTCLVKGFYPSDIAVEWESNGQPENNYKTTPPVLDSDGSFFLYSKLTVDKSRWQQGNVFSCSVMHEALHNHYTQKSLSLSPGK
light: DIVMTQSPDSLAVSLGERATINCRASESVDNFGVSFMYWFQQKPGQPPKLLIYGASNQGSGVPDRFSGSGSGTDFTLTISSLQAEDVAVYYCQQTKEVPYTFGGGTKVEIKRTVAAPSVFIFPPSDEQLKSGTASVVCLLNNFYPREAKVQWKVDNALQSGNSQESVTEQDSKDSTYSLSSTLTLSKADYEKHKVYACEVTHQGLSSPVTKSFNRGEC
B2: mAb21: humanized I-394 variant, VH H4 (SEQ ID NO: 31), VL L1* (SEQ ID NO: 37); heavy chain SEQ ID NO: 38, light chain SEQ ID NO: 40 (antibody)
heavy: B1 heavy
light: B1 light with R24K

Key:
CD39 = target: T1, CD39; conditions: Levesque et al. (2007); cited from earlier work
[1] = Stability in reference formulation (storage, freeze thaw); type: physicochemical; conditions: about 7 mg/mL, pH 6.0 histidine/sucrose/NaCl/PS80, +5° C. and +40° C., up to 1 month
Method: (§1) Antibodies mAb1-24 and prior art anti-CD39 antibody BY40, all produced as human IgG1 isotypes with L234A/L235E/G237A/A330S/P331S substitutions were tested for stability in the following reference formulation at a concentration of approximatively 7 mg/mL: pH 6.0; histidine buffer (10 mM); sucrose (200 mM); NaCl (50 mM); Polysorbate 80 (PS80) (0.2 g/L). The stability of the formulations was monitored in two storage conditions (at +5° C.±3° C. and at +40±3° C. For each study, 3 time points were performed: T0, T15D (15 days) and T1M (1 month). A freeze thaw (F/T) and a thermal shift stability assay (TSSA) were conducted for the format comparison. To perform F/T cycles, the samples were frozen at least 2 hours at −20° C. and thawed at least 1 hour at room temperature, the F/T cycle is repeated three times and samples are tested 24 h after the last Freeze/Thaw cycle. At each time point, the following tests were performed: • Particulate Matter (MFI) • Visual Inspection (Appearance) • Impurities (SE-HPLC) • Turbidity (400 nm) • Protein Concentration (280 nm) (performed with Nanodrop, Thermo Fisher Scientific Inc.)

[2] = target: T2, soluble recombinant human CD39 protein; assay: Inhibition of the enzymatic activity of soluble CD39 (Cell Titer Glo, cell-free); type: biochemical; conditions: humanized variants
Method: (§2) The inhibition by antibodies of the enzymatic activity of soluble CD39 protein produced was evaluated using Cell Titer GIo™ (Promega, reference G7571) that allows assessment of ATP hydrolysis through use of a reagent that generates a luminescent signal proportional to the amount of ATP present. In this way, inhibition of the soluble-CD39-meidated ATP hydrolysis can be assessed. Briefly, dose ranges of anti-CD39 antibodies from 100 μg/ml to […] were incubated with 400 ng/ml of soluble recombinant human CD39 protein having the amino acid sequence described in the Methods section (SEQ ID NO: 44), for 1 h at 37° C. 20 μM ATP was added to the plates for 30 additional minutes at 37° C. before addition of CTG (Cell Titer Glo) reagent. Emitted light was quantified using an Enspire™ luminometer after a short incubation period of 5 min in the dark. Anti-CD39 antibody efficacy was determined by comparing emitted light in presence of antibody with ATP alone (maximal light emission) and ATP together with soluble CD39 protein (minimal light emission).

[3] = Aggregation temperature (thermal shift stability assay); type: physicochemical; conditions: human IgG1 with L234A/L235E/G237A/A330S/P331S
Method: as §1

[4] = target: T3, human Ramos lymphoma cells (CD39); assay: Antibody titration on Ramos cells by flow cytometry; type: binding; conditions: comparison
Method: Antibody I-394 was tested in two repeated experiments for binding to CHO cells expressing human CD39, CHO cells expressing cynomolgus (Macaca fascicularis) CD39, CHO cells expressing murine CD39, and human Ramos lymphoma cells (ATCC™, reference CRL-1596). Cells were incubated with various concentration of unlabeled anti-CD39 antibody from 30 μg/ml to 5×10^−4 μg/ml, for 30 minutes at 4° C. After washes, cells were incubated with Goat anti-mouse H+L labeled secondary antibody for 30 min at 4° C.

[5] = target: T4, membrane-bound CD39 in Mino tumor cells; assay: Inhibition of the enzymatic activity of cellular CD39 in Mino cells; type: cell-based
Method: (§3) The inhibition of the CD39 enzymatic activity in CD39-expressing cells by antibodies was evaluated using Cell Titer GIo™ (Promega, reference G7571) that allows assessment of ATP hydrolysis through use of a reagent that generates a luminescent signal proportional to the amount of ATP present. The assay was thus designed to permit assessment of the inhibition of ATP hydrolyzed by CD39 in the cell culture supernatant. Briefly, 5×10^4 Ramos human lymphoma cells, 5×10^3 human CD39−, cynomolgus CD39—and mouse CD39− expressing CHO cells, were incubated 1 hour at 37° C. with anti-CD39 antibodies from 30 μg/ml to 5×10^−4 μg/ml. Cells were then incubated with 20 μM ATP for 1 additional hour at 37° C. Plates were centrifuged for 2 min at 400 g and 50 μl cell supernatant are transferred in a luminescence microplate (white wells). 50 μl CellTiter-Glo™ Reagent (CTG) was added to the supernatant and emitted light was quantified after a 5 min incubation in the dark using a Enspire™ luminometer. Anti-CD39 antibody efficacy was determined by comparing emitted light in presence of antibody with ATP alone (maximal light emission) and ATP together with cells (minimal light emission).
Antibodies were tested for potency in inhibition of ATPase activity in cell lines that express membrane-bound CD39. […]

[6] = target: T5, CD39 expressed by Ramos human lymphoma cells; assay: Inhibition of the enzymatic activity of cellular CD39 in Ramos cells; type: cell-based; conditions: Ramos cells
Method: as §3

[7] = tested on: soluble CD39 protein released in cell culture supernatant from CHO cells expressing human CD39; assay: Inhibition of ATPase activity of soluble CD39 released in CHO-huCD39 culture supernatant; type: biochemical; conditions: humanized variants
Method: as §2
Antibodies were tested for capacity to inhibit the ATPase activity of soluble CD39 protein using the assays used for inhibition of the enzymatic activity of soluble CD39 as described above (Methods). […]

binding to Ramos cells relative to I-394 [4] | Molecule | inhibition of CD39 (mode, strength) (CD39) | physicochemical stability [1] | potency for inhibition of soluble CD39 relative to parental I-394 [2] | Aggregation temperature (TAgg) [3] | potency at blocking CD39 enzymatic activity relative to other antibodies [5] | potency at blocking CD39 enzymatic activity relative to other antibodies [6] | potency relative to parental I-394, soluble CD39 in CHO-huCD39 supernatant [7]
 | CCN(CC)c1ncnc2c1ncn2[C@@H]1O[C@H](COP(=O)(O)OP(=O)(O)C(Br)(Br)P(=O)(O)O)[C@@H](O)[C@H]1O [ARL67156] | weak competitive inhibitor |  |  |  |  |  | 
best binding | B1 |  | good physicochemical stability | comparable to the parental I-394 antibody | ~70 °C | more potent at blocking CD39 enzymatic activity compared to all other antibodies | more potent at blocking CD39 enzymatic activity compared to all other antibodies | comparable to the parental I-394 antibody
best binding | B2 |  | good physicochemical stability | comparable to the parental I-394 antibody | ~70 °C | more potent at blocking CD39 enzymatic activity compared to all other antibodies | more potent at blocking CD39 enzymatic activity compared to all other antibodies | comparable to the parental I-394 antibody
